# Assay results: US20090291890A1 (published 2009)
# Target: Factor X (FX) (Homo sapiens (Human)) (UniProt P00742)
# Sequence (P00742 41-488 limits assumed): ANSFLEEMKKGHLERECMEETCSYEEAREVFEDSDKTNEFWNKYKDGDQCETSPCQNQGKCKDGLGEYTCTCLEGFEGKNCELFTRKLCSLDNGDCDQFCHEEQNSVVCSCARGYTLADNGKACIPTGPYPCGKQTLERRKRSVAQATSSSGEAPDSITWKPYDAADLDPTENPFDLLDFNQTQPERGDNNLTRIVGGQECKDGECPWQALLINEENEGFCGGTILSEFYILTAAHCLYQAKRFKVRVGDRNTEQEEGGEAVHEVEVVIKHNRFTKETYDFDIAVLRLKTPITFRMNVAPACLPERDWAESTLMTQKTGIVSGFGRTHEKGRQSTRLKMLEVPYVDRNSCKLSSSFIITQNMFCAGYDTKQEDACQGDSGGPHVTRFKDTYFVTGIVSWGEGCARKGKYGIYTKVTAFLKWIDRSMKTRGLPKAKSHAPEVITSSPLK
row,Binder,"kcat/KM, TF-Dependent Indirect Assay"
1,FVIIa variant H216A (enzyme) ANAFLEELRPGSLERECKEEQCSFEEAREIFKDAERTKLFWISYSDGDQCASSPCQNGGSCKDQLQSYICFCLPAFEGRNCETHKDDQLICVNENGGCEQYCSDHTGTKRSCRCHEGYSLLADGVSCTPTVEYPCGKIPILEKRNASKPQGRIVGGKVCPKGECPWQVLLLVNGAQLCGGTLINTIWVVSAAHCFDKIKNWRNLIAVLGEHDLSEADGDEQSRRVAQVIIPSTYVPGTTNHDIALLRLHQPVVLTDHVVPLCLPERTFSERTLAFVRFSLVSGWGQLLDRGATALELMVLNVPRLMTQDCLQQSRKVGDSPNITEYMFCAGYSDGSKDSCKGDSGGPHATHYRGTWYLTGIVSWGQGCATVGHFGVYTRVSQYIEWLQKLMRSEPRPGVLLRAPFP,5.98e+07 M⁻¹ s⁻¹
2,FVIIa variant H216K (enzyme) ANAFLEELRPGSLERECKEEQCSFEEAREIFKDAERTKLFWISYSDGDQCASSPCQNGGSCKDQLQSYICFCLPAFEGRNCETHKDDQLICVNENGGCEQYCSDHTGTKRSCRCHEGYSLLADGVSCTPTVEYPCGKIPILEKRNASKPQGRIVGGKVCPKGECPWQVLLLVNGAQLCGGTLINTIWVVSAAHCFDKIKNWRNLIAVLGEHDLSEKDGDEQSRRVAQVIIPSTYVPGTTNHDIALLRLHQPVVLTDHVVPLCLPERTFSERTLAFVRFSLVSGWGQLLDRGATALELMVLNVPRLMTQDCLQQSRKVGDSPNITEYMFCAGYSDGSKDSCKGDSGGPHATHYRGTWYLTGIVSWGQGCATVGHFGVYTRVSQYIEWLQKLMRSEPRPGVLLRAPFP,6.51e+07 M⁻¹ s⁻¹
3,FVIIa variant H216R (enzyme) ANAFLEELRPGSLERECKEEQCSFEEAREIFKDAERTKLFWISYSDGDQCASSPCQNGGSCKDQLQSYICFCLPAFEGRNCETHKDDQLICVNENGGCEQYCSDHTGTKRSCRCHEGYSLLADGVSCTPTVEYPCGKIPILEKRNASKPQGRIVGGKVCPKGECPWQVLLLVNGAQLCGGTLINTIWVVSAAHCFDKIKNWRNLIAVLGEHDLSERDGDEQSRRVAQVIIPSTYVPGTTNHDIALLRLHQPVVLTDHVVPLCLPERTFSERTLAFVRFSLVSGWGQLLDRGATALELMVLNVPRLMTQDCLQQSRKVGDSPNITEYMFCAGYSDGSKDSCKGDSGGPHATHYRGTWYLTGIVSWGQGCATVGHFGVYTRVSQYIEWLQKLMRSEPRPGVLLRAPFP,9.44e+07 M⁻¹ s⁻¹
4,FVIIa variant S222K (enzyme) ANAFLEELRPGSLERECKEEQCSFEEAREIFKDAERTKLFWISYSDGDQCASSPCQNGGSCKDQLQSYICFCLPAFEGRNCETHKDDQLICVNENGGCEQYCSDHTGTKRSCRCHEGYSLLADGVSCTPTVEYPCGKIPILEKRNASKPQGRIVGGKVCPKGECPWQVLLLVNGAQLCGGTLINTIWVVSAAHCFDKIKNWRNLIAVLGEHDLSEHDGDEQKRRVAQVIIPSTYVPGTTNHDIALLRLHQPVVLTDHVVPLCLPERTFSERTLAFVRFSLVSGWGQLLDRGATALELMVLNVPRLMTQDCLQQSRKVGDSPNITEYMFCAGYSDGSKDSCKGDSGGPHATHYRGTWYLTGIVSWGQGCATVGHFGVYTRVSQYIEWLQKLMRSEPRPGVLLRAPFP,8.02e+07 M⁻¹ s⁻¹
5,FVIIa variant H257A (enzyme) ANAFLEELRPGSLERECKEEQCSFEEAREIFKDAERTKLFWISYSDGDQCASSPCQNGGSCKDQLQSYICFCLPAFEGRNCETHKDDQLICVNENGGCEQYCSDHTGTKRSCRCHEGYSLLADGVSCTPTVEYPCGKIPILEKRNASKPQGRIVGGKVCPKGECPWQVLLLVNGAQLCGGTLINTIWVVSAAHCFDKIKNWRNLIAVLGEHDLSEHDGDEQSRRVAQVIIPSTYVPGTTNHDIALLRLHQPVVLTDAVVPLCLPERTFSERTLAFVRFSLVSGWGQLLDRGATALELMVLNVPRLMTQDCLQQSRKVGDSPNITEYMFCAGYSDGSKDSCKGDSGGPHATHYRGTWYLTGIVSWGQGCATVGHFGVYTRVSQYIEWLQKLMRSEPRPGVLLRAPFP,3.9e+07 M⁻¹ s⁻¹
6,FVIIa variant H257S (enzyme) ANAFLEELRPGSLERECKEEQCSFEEAREIFKDAERTKLFWISYSDGDQCASSPCQNGGSCKDQLQSYICFCLPAFEGRNCETHKDDQLICVNENGGCEQYCSDHTGTKRSCRCHEGYSLLADGVSCTPTVEYPCGKIPILEKRNASKPQGRIVGGKVCPKGECPWQVLLLVNGAQLCGGTLINTIWVVSAAHCFDKIKNWRNLIAVLGEHDLSEHDGDEQSRRVAQVIIPSTYVPGTTNHDIALLRLHQPVVLTDSVVPLCLPERTFSERTLAFVRFSLVSGWGQLLDRGATALELMVLNVPRLMTQDCLQQSRKVGDSPNITEYMFCAGYSDGSKDSCKGDSGGPHATHYRGTWYLTGIVSWGQGCATVGHFGVYTRVSQYIEWLQKLMRSEPRPGVLLRAPFP,5.9e+07 M⁻¹ s⁻¹
7,FVIIa variant K161S (enzyme) ANAFLEELRPGSLERECKEEQCSFEEAREIFKDAERTKLFWISYSDGDQCASSPCQNGGSCKDQLQSYICFCLPAFEGRNCETHKDDQLICVNENGGCEQYCSDHTGTKRSCRCHEGYSLLADGVSCTPTVEYPCGKIPILEKRNASKPQGRIVGGKVCPSGECPWQVLLLVNGAQLCGGTLINTIWVVSAAHCFDKIKNWRNLIAVLGEHDLSEHDGDEQSRRVAQVIIPSTYVPGTTNHDIALLRLHQPVVLTDHVVPLCLPERTFSERTLAFVRFSLVSGWGQLLDRGATALELMVLNVPRLMTQDCLQQSRKVGDSPNITEYMFCAGYSDGSKDSCKGDSGGPHATHYRGTWYLTGIVSWGQGCATVGHFGVYTRVSQYIEWLQKLMRSEPRPGVLLRAPFP,5.99e+07 M⁻¹ s⁻¹
8,FVIIa variant K161A (enzyme) ANAFLEELRPGSLERECKEEQCSFEEAREIFKDAERTKLFWISYSDGDQCASSPCQNGGSCKDQLQSYICFCLPAFEGRNCETHKDDQLICVNENGGCEQYCSDHTGTKRSCRCHEGYSLLADGVSCTPTVEYPCGKIPILEKRNASKPQGRIVGGKVCPAGECPWQVLLLVNGAQLCGGTLINTIWVVSAAHCFDKIKNWRNLIAVLGEHDLSEHDGDEQSRRVAQVIIPSTYVPGTTNHDIALLRLHQPVVLTDHVVPLCLPERTFSERTLAFVRFSLVSGWGQLLDRGATALELMVLNVPRLMTQDCLQQSRKVGDSPNITEYMFCAGYSDGSKDSCKGDSGGPHATHYRGTWYLTGIVSWGQGCATVGHFGVYTRVSQYIEWLQKLMRSEPRPGVLLRAPFP,4.22e+07 M⁻¹ s⁻¹
9,FVIIa variant K161V (enzyme) ANAFLEELRPGSLERECKEEQCSFEEAREIFKDAERTKLFWISYSDGDQCASSPCQNGGSCKDQLQSYICFCLPAFEGRNCETHKDDQLICVNENGGCEQYCSDHTGTKRSCRCHEGYSLLADGVSCTPTVEYPCGKIPILEKRNASKPQGRIVGGKVCPVGECPWQVLLLVNGAQLCGGTLINTIWVVSAAHCFDKIKNWRNLIAVLGEHDLSEHDGDEQSRRVAQVIIPSTYVPGTTNHDIALLRLHQPVVLTDHVVPLCLPERTFSERTLAFVRFSLVSGWGQLLDRGATALELMVLNVPRLMTQDCLQQSRKVGDSPNITEYMFCAGYSDGSKDSCKGDSGGPHATHYRGTWYLTGIVSWGQGCATVGHFGVYTRVSQYIEWLQKLMRSEPRPGVLLRAPFP,5.45e+07 M⁻¹ s⁻¹
10,FVIIa variant H373D (enzyme) ANAFLEELRPGSLERECKEEQCSFEEAREIFKDAERTKLFWISYSDGDQCASSPCQNGGSCKDQLQSYICFCLPAFEGRNCETHKDDQLICVNENGGCEQYCSDHTGTKRSCRCHEGYSLLADGVSCTPTVEYPCGKIPILEKRNASKPQGRIVGGKVCPKGECPWQVLLLVNGAQLCGGTLINTIWVVSAAHCFDKIKNWRNLIAVLGEHDLSEHDGDEQSRRVAQVIIPSTYVPGTTNHDIALLRLHQPVVLTDHVVPLCLPERTFSERTLAFVRFSLVSGWGQLLDRGATALELMVLNVPRLMTQDCLQQSRKVGDSPNITEYMFCAGYSDGSKDSCKGDSGGPHATHYRGTWYLTGIVSWGQGCATVGDFGVYTRVSQYIEWLQKLMRSEPRPGVLLRAPFP,1.79e+07 M⁻¹ s⁻¹
11,FVIIa variant H373E (enzyme) ANAFLEELRPGSLERECKEEQCSFEEAREIFKDAERTKLFWISYSDGDQCASSPCQNGGSCKDQLQSYICFCLPAFEGRNCETHKDDQLICVNENGGCEQYCSDHTGTKRSCRCHEGYSLLADGVSCTPTVEYPCGKIPILEKRNASKPQGRIVGGKVCPKGECPWQVLLLVNGAQLCGGTLINTIWVVSAAHCFDKIKNWRNLIAVLGEHDLSEHDGDEQSRRVAQVIIPSTYVPGTTNHDIALLRLHQPVVLTDHVVPLCLPERTFSERTLAFVRFSLVSGWGQLLDRGATALELMVLNVPRLMTQDCLQQSRKVGDSPNITEYMFCAGYSDGSKDSCKGDSGGPHATHYRGTWYLTGIVSWGQGCATVGEFGVYTRVSQYIEWLQKLMRSEPRPGVLLRAPFP,2.79e+07 M⁻¹ s⁻¹
12,FVIIa variant H373S (enzyme) ANAFLEELRPGSLERECKEEQCSFEEAREIFKDAERTKLFWISYSDGDQCASSPCQNGGSCKDQLQSYICFCLPAFEGRNCETHKDDQLICVNENGGCEQYCSDHTGTKRSCRCHEGYSLLADGVSCTPTVEYPCGKIPILEKRNASKPQGRIVGGKVCPKGECPWQVLLLVNGAQLCGGTLINTIWVVSAAHCFDKIKNWRNLIAVLGEHDLSEHDGDEQSRRVAQVIIPSTYVPGTTNHDIALLRLHQPVVLTDHVVPLCLPERTFSERTLAFVRFSLVSGWGQLLDRGATALELMVLNVPRLMTQDCLQQSRKVGDSPNITEYMFCAGYSDGSKDSCKGDSGGPHATHYRGTWYLTGIVSWGQGCATVGSFGVYTRVSQYIEWLQKLMRSEPRPGVLLRAPFP,2.75e+07 M⁻¹ s⁻¹
13,FVIIa variant H373F (enzyme) ANAFLEELRPGSLERECKEEQCSFEEAREIFKDAERTKLFWISYSDGDQCASSPCQNGGSCKDQLQSYICFCLPAFEGRNCETHKDDQLICVNENGGCEQYCSDHTGTKRSCRCHEGYSLLADGVSCTPTVEYPCGKIPILEKRNASKPQGRIVGGKVCPKGECPWQVLLLVNGAQLCGGTLINTIWVVSAAHCFDKIKNWRNLIAVLGEHDLSEHDGDEQSRRVAQVIIPSTYVPGTTNHDIALLRLHQPVVLTDHVVPLCLPERTFSERTLAFVRFSLVSGWGQLLDRGATALELMVLNVPRLMTQDCLQQSRKVGDSPNITEYMFCAGYSDGSKDSCKGDSGGPHATHYRGTWYLTGIVSWGQGCATVGFFGVYTRVSQYIEWLQKLMRSEPRPGVLLRAPFP,5.11e+07 M⁻¹ s⁻¹
14,FVIIa variant H373A (enzyme) ANAFLEELRPGSLERECKEEQCSFEEAREIFKDAERTKLFWISYSDGDQCASSPCQNGGSCKDQLQSYICFCLPAFEGRNCETHKDDQLICVNENGGCEQYCSDHTGTKRSCRCHEGYSLLADGVSCTPTVEYPCGKIPILEKRNASKPQGRIVGGKVCPKGECPWQVLLLVNGAQLCGGTLINTIWVVSAAHCFDKIKNWRNLIAVLGEHDLSEHDGDEQSRRVAQVIIPSTYVPGTTNHDIALLRLHQPVVLTDHVVPLCLPERTFSERTLAFVRFSLVSGWGQLLDRGATALELMVLNVPRLMTQDCLQQSRKVGDSPNITEYMFCAGYSDGSKDSCKGDSGGPHATHYRGTWYLTGIVSWGQGCATVGAFGVYTRVSQYIEWLQKLMRSEPRPGVLLRAPFP,3.11e+07 M⁻¹ s⁻¹
